Numbering of substitutions follows the chain as printed.
B1: C145 (ligand)
chain: YFGKLESKLSIIRNLNDQVLFIDQGNRPLFEDMTDSDARDNAPRTIFIISMYADAQPRGMAVTISVKCEKISTLSAENKIISFKEMNPPDNIKDTKSDIIFFQRSVPGHDNKMQFESSSYEGYFLAAEKERDLFKLILKKEDELGDRSIMFTVQNED
B2: C161 (ligand)
chain: B1 chain with K8R, A53K, A55S, Q103E
B3: C166 (ligand)
chain: B1 chain with A53K, A55T
B4: C155 (ligand)
chain: B1 chain with D40A, A55S
B5: C151 (ligand)
chain: B1 chain with D35A, A55S
B6: C147 (ligand)
chain: B1 chain with D54A, A55S
B7: C164 (ligand)
chain: B1 chain with A53K, A55H
B8: C162 (ligand)
chain: B1 chain with K8E, A53K, A55S, Q103R
B9: C152 (ligand)
chain: B1 chain with S36A, A55S
B10: C168 (ligand)
chain: B1 chain with A53K, A55S, S105K
B11: C153 (ligand)
chain: B1 chain with D37A, A55S
B12: C156 (ligand)
chain: B1 chain with N41A, A55S
B13: C158 (ligand)
chain: B1 chain with A55S, G108A
B14: C148 (ligand)
chain: B1 chain with F2A, A55S
B15: C160 (ligand)
chain: B1 chain with A55S, D110A
B16: C154 (ligand)
chain: B1 chain with E31A, D37A, A55S
B17: C146 (ligand)
chain: B1 chain with M51G, A55S
B18: C167 (ligand)
chain: B1 chain with A53K, A55S, S105I
B19: C149 (ligand)
chain: B1 chain with E31A, A55S
B20: C163 (ligand)
chain: B1 chain with A53K, A55S, Q103K
B21: C159 (ligand)
chain: B1 chain with A55S, H109A
B22: C150 (ligand)
chain: B1 chain with T34A, A55S
B23: C165 (ligand)
chain: B1 chain with A53K, A55R
B24: C157 (ligand)
chain: B1 chain with A55S, D132A
B25: C316 (ligand)
chain: MAAEPVEDNSINFVAMKFIDNTLYFIAEDDENLESDSGRVANLVGYFGKLKSKLSIIRNLNDQVLFIDQGNRPLFEDMTDSDARDNAPRTIFIISMYADSQPRGMAVAISVKCEKISTLSAENKIISFKEMNPPDNIKDTKSDIIFFQRSVPGHDNKMQFESSSYEGYFLAAEKERDLFKLILKKEDELGDRSIMFTVQNED
B26: C316 + Matriptase (ligand)
chain: B25 chain
B27: C317 (ligand)
chain: MAAEPVEDNSINFVAMKFIDNTLYFIAEDDENLESDRGRRVANLVGYFGKLKSKLSIIRNLNDQVLFIDQGNRPLFEDMTDSDARDNAPRTIFIISMYADSQPRGMAVAISVKCEKISTLSAENKIISFKEMNPPDNIKDTKSDIIFFQRSVPGHDNKMQFESSSYEGYFLAAEKERDLFKLILKKEDELGDRSIMFTVQNED
B28: C318 (ligand)
chain: MAAEPVEDNSINFVAMKFIDNTLYFIAEDDENLESDSGRVANYFGKLKSKLSIIRNLNDQVLFIDQGNRPLFEDMTDSDARDNAPRTIFIISMYADSQPRGMAVAISVKCEKISTLSAENKIISFKEMNPPDNIKDTKSDIIFFQRSVPGHDNKMQFESSSYEGYFLAAEKERDLFKLILKKEDELGDRSIMFTVQNED
B29: C320 (ligand)
chain: B28 chain with V40P, A41L, N42G
B30: C318 + Matriptase (ligand)
chain: B28 chain
B31: C319 (ligand)
chain: MAAEPVEDNSINFVAMKFIDNTLYFIAEDDENLESDRGRRVANYFGKLKSKLSIIRNLNDQVLFIDQGNRPLFEDMTDSDARDNAPRTIFIISMYADSQPRGMAVAISVKCEKISTLSAENKIISFKEMNPPDNIKDTKSDIIFFQRSVPGHDNKMQFESSSYEGYFLAAEKERDLFKLILKKEDELGDRSIMFTVQNED

Each binder was assayed against T1, IL-18 receptor (IL-18Rαβ) on cells (UniProt Q13478 19-541; O95256 20-599, limits assumed) (assay: cell-based or functional assay).
T1 sequence (looked up) 1: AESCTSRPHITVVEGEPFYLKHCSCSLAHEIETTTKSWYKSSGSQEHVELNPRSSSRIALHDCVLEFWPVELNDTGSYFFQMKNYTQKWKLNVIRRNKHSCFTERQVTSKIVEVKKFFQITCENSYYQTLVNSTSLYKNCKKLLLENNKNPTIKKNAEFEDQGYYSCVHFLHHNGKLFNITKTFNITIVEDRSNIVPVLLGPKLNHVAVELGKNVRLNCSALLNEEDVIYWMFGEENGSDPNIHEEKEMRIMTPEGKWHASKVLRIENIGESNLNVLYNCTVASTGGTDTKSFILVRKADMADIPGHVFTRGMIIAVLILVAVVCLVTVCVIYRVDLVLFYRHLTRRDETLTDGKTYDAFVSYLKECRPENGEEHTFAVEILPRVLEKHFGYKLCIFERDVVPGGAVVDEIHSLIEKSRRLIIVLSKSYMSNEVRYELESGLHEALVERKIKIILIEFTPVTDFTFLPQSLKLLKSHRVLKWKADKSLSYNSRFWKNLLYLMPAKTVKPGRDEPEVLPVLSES
T1 sequence (looked up) 2: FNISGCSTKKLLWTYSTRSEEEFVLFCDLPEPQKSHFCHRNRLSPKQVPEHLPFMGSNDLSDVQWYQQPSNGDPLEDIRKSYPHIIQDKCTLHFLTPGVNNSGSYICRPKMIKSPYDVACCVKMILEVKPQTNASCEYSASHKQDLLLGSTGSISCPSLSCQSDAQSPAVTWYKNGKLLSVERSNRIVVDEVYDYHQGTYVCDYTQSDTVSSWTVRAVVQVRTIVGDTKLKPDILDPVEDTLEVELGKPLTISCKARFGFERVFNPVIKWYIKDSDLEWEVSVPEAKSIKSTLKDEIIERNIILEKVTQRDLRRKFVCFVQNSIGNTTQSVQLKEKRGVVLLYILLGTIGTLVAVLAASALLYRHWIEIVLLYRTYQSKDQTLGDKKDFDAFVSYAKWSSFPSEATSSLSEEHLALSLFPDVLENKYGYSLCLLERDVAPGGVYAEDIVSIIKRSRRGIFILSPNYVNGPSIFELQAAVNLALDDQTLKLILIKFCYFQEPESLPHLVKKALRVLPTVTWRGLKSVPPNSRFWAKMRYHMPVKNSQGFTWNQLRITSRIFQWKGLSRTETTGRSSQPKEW

Binder | EC50 (IFNγ stimulation, NK92) [nM]
B1 | 0.087
B2 | 0.057
B3 | 0.098
B4 | 0.067
B5 | 0.061
B6 | 0.079
B7 | 0.414
B8 | 0.061
B9 | 0.033
B10 | 0.098
B11 | 0.175
B12 | 0.558
B13 | 0.073
B14 | 0.256
B15 | 0.028
B16 | 0.062
B17 | 0.037
B18 | 0.103
B19 | 0.187
B20 | 0.093
B21 | 0.123
B22 | 0.015
B23 | 0.176
B24 | 0.056

Biological target: T1, IL-18 receptor (IL-18Rαβ) on cells
Assay: cell-based or functional assay
Remark: another data set of the same source

Binder | HEK-Blue IL-18R reporter EC50 [nM]
B1 | 0.00363
B2 | 0.00201
B3 | 0.00473
B4 | 0.00052
B5 | 0.0131
B6 | 0.001
B7 | 0.00314
B8 | 0.0023
B9 | 0.00025
B10 | 0.00773
B11 | 0.0141
B12 | 0.0117
B13 | 0.0156
B14 | 0.00728
B15 | 0.00202
B16 | 0.0119
B17 | 0.0008
B18 | 0.00537
B19 | 0.0066
B20 | 0.0015
B21 | 0.0195
B22 | 0.0007
B23 | 0.00191
B24 | 0.00195

Biological target: T1, IL-18 receptor (IL-18Rαβ) on cells
Assay: cell-based or functional assay
Remark: another data set of the same source

Binder | IFNγ release NK-92 assay EC50 [nM]
B25 | 532
B26 | 366
B27 | 526
B28 | 21.9
B29 | 158
B30 | 22.1
B31 | 21.3

Source: patent US20250197467A1 (BRIGHT PEAK THERAPEUTICS, published 2025)
